Assay results: patent US20050002917A1 (UNIVERSITY OF MASSACHUSETTS, published 2005)

Molecular target: T1, 35S-methionine-luciferase (in vitro translated from the Promega luciferase control plasmid) (UniProt P08659 1-550 = luciferase, 35S-methionine label)
T1 construct: Control protein in the pull-down; also called control protein luciferase
Assay: GST pull-down of 35S-labelled protein on glutathione-Sepharose 4B beads, SDS/PAGE and autoradiography
Description: The CaM kinase II domain of mCASK-C cDNA was amplified by PCR and cloned in frame into SmaI of pGEX-2T and transformed into E. coli BL21 cells. […] For pull-down assays, radiolabeled Acheron and luciferase was produced from pET-25b(+)-Acheron and luciferase controlled plasmid (Promega) by using in vitro TNT Quick Coupled Transcription/Translation System (Promega) with ³⁵S-methionine as the sole source of methionine, following the manufacture's instructions. 5 μl of ³⁵S-methionine-Acheron and ³⁵S-methionine-luciferase were incubated with equal amount of GST or GST-mCASK-C (CaM kinase II domain) bound to glutathione-Sepharose 4B beads, respectively, under constant rocking for 45 minutes in 2 ml of NETN binding buffer. ³⁵S-methionine-luciferase and GST were used as the controls in the binding assays. The Sepharose beads were pelleted and washed extensively with the binding buffer and were analyzed by SDS/PAGE and autoradiography.
To further confirm the physical interaction between Acheron and mCASK-C, an in vitro protein binding assay was performed. […] The beads were pelleted and washed extensively and the bound protein complex was resolved by SDS/PAGE and detected by autoradiography.

T1 sequence (P08659 whole entry): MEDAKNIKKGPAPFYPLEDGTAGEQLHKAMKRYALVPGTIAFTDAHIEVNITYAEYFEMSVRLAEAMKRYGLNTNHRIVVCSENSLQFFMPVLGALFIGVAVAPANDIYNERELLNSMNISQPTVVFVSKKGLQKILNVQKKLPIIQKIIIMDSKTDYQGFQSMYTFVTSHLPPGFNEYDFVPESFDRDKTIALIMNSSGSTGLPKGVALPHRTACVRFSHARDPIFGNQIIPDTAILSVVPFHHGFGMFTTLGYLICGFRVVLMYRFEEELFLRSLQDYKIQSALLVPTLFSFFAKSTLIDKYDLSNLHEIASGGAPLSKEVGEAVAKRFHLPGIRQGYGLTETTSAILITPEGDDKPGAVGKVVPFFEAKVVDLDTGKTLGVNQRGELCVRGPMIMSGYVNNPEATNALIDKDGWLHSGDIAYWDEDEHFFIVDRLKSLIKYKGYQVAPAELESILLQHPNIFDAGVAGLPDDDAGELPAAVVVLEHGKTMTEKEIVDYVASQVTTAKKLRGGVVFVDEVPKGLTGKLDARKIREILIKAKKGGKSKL

B1: GST-mCASK-C (CaM kinase II domain from amino acid 1 to 339) (other)
chain: MADDDVLFEDVYELCEVIGKGPFSVVRRCINRETGQQFAVKIVDVAKFTSSPGLSTEDLKREASICHMLKHPHIVELLETYSSDGMLYMVFEFMDGADLCFEIVKRADAGFVYSEAVASHYMRQILEALRYCHDNNIIHRDVKPHCVLLASKENSAPVKLGGFGVAIQLGESGLVAGGRVGTPHFMAPEVVKREPYGKPVDVWGCGVILFILLSGCLPFYGTKERLFEGIIKGKYKMNPRQWSHISESAKDLVRRMLMLDPAERITVYEALNHPWLKERDRYAYKIHLPETVEQLRKFNARRKLKGAVLAAVSSHKFNSFYGDPPEELPDFSEDPTSSG
notes: Expressed in E. coli BL21 and immobilised on glutathione-Sepharose 4B beads; not shown: glutathione S-transferase from vector pGEX-2T
binding result: no binding
